Where two headings read alike, the source gives them in different places.
T1: recombinant cyno CD3e (Acro, cat #CDE-C5226) (cynomolgus monkey, UniProt Q95LI5 22-117)
T1 sequence (looked up): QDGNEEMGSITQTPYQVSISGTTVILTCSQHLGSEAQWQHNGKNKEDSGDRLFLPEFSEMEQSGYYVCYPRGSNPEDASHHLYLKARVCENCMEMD


Assays:
[1] = target: recombinant CD3e-CD3d heterodimer protein (Acro Biosystems) (UniProt P07766 23-126; P04234 22-105); assay: SPR (Biacore 8K), CD3e-CD3d immobilized on CM5 chip, bispecific as analyte, 1:1 model
recombinant CD3e-CD3d heterodimer protein (Acro Biosystems), sequence (P07766 23-126 limits assumed, chain 1 of 2): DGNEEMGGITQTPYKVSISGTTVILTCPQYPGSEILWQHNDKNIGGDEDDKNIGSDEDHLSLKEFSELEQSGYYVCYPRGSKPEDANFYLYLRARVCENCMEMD
recombinant CD3e-CD3d heterodimer protein (Acro Biosystems), sequence (P04234 22-105 limits assumed, chain 2 of 2): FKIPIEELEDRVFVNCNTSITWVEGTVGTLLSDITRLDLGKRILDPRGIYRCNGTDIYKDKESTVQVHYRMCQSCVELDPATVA
Protocol: (§1) Binding affinities of first-generation bispecific antibodies to recombinant CD3e-CD3d heterodimer protein (Acro Biosystems) or LILRB4 recombinant protein (Sino Biological) were measured by surface plasmon resonance using a Biacore 8K instrument. Briefly, CD3e-CD3d or LILRB4 protein was immobilized on a CM5 chip with EDC and NHS according to standard protocols. […] The chip was regenerated using 10 mM glycine pH 1.5 as the regeneration buffer. The sensorgrams for reference channel Fc1 and buffer channel were subtracted from the test sensorgrams and the experimental data was fitted by 1:1 binding model.

[2] = target: T2, recombinant human LILRB4 protein (Sino Biological, cat #16742-H08H) (human, UniProt Q8NHJ6 22-259); assay: SPR (Biacore 8K), LILRB4 immobilized on CM5 chip, bispecific as analyte, 1:1 model
T2 construct: extracellular domain; also called LILRB4 recombinant protein (Sino Biological); Human LILRB4 ECD-his; not shown: his tag
Protocol: as §1

[3] = target: T3, human LILRB4 expressed on cells (human, UniProt Q8NHJ6 22-448); assay: FACS (Geo MFI) on normal human monocytes; panel assigned to monocytes by the order in legend paragraph 86
T3 construct: whole, on cells; also called ILT3; CD85k

[4] = target: T3, human LILRB4 expressed on cells; assay: cell-based or functional assay
[5] = target: T3, human LILRB4 expressed on cells; assay: cell-based or functional assay; remark: listed apart in the source
[6] = target: T1, recombinant cyno CD3e (Acro, cat …); assay: BLI (Gator Bio), bispecific captured on anti-human Fc probe, cyno CD3e in solution, 1:1 global fit
Protocol: (§2) Binding affinities of second-generation bispecific antibodies were measured to recombinant human CD3e (Acro, cat #CDE-H5223), cyno CD3e (Acro, cat #CDE-C5226), human LILRB4 (Sino Biological, cat #16742-H08H), and cyno LILRB4 (Acro, cat #CDK-C5227) by Bio-Layer Interferometry (BLI) using an instrument from Gator Bio. Bispecific antibodies were captured using an immobilized anti-human Fc antibody (HFC) probe (Gator Bio, cat #PL168-160003) at 5 ug/mL load. […] Binding affinity constants were determined using a 1:1 fitting model (Global Fit) with Gator's data analysis software 1.6.1.1203, and the KD was calculated using the ratio Kdis/Kon.

[7] = target: T2, recombinant human LILRB4 protein (Sino …); assay: BLI (Gator Bio), bispecific captured on anti-human Fc probe, human LILRB4 in solution, 1:1 global fit
Protocol: as §2

[8] = target: T4, recombinant cyno LILRB4 (Acro, cat #CDK-C5227) (cynomolgus monkey); assay: BLI (Gator Bio), bispecific captured on anti-human Fc probe, cyno LILRB4 in solution, 1:1 global fit
T4 construct: extracellular domain; also called cynomolgus monkey LILRB4 ECD-his recombinant protein (ACRObiosystems)
Protocol: as §2

CD3 on Jurkat cells = target: T5, CD3 on Jurkat cells (UniProt P07766 23-207); assay: FACS on CD3+ Jurkat cells; estimated, curve did not reach a plateau
T5 construct: whole, on cells; on cells it stands in the whole CD3/TCR complex; also called CD3+ Jurkat cells
T5 sequence (P07766 23-207): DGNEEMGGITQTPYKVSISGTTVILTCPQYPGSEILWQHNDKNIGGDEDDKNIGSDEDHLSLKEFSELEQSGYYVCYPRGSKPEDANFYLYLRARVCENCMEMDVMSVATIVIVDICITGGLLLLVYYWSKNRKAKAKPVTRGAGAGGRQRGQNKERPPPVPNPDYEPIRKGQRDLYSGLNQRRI

[9] = target: T3, human LILRB4 expressed on cells; assay: FACS on LILRB4+ THP-1 cells, Alexa 647 anti-human IgG Fc detection
Protocol: Binding of first and second generation bispecifics to CD3 or LILRB4 was measured by FACS on Jurkat cells or THP-1 cells. To measure binding of bispecifics to THP-1 cells, THP-1 cells were first incubated with human Fc blocker (BD Pharmingen Catalog No. 564220) at 10 ug per one million cells at room temperature for 10 minutes, followed by incubated with serially diluted bispecifics for 30 minutes on ice. Cells were washed twice with BSA staining buffer (BD Pharmingen Catalog No. 554657) and incubated with secondary Alexa 647 conjugated anti-human IgG Fc monoclonal antibody (Biolegend Catalog No. 409306) at 5 ug/mL for 30 minutes on ice. After final wash, 7-AAD was applied to exclude dead cells. To measure binding of first generation bispecifics to Jurkat cells, each bispecific was diluted in buffer including 1% BSA (5-fold dilution series, 400 nM highest concentration) and incubated with cells for 30 minutes at 4° C. Then bispecifics were stained with Alexa 647 anti-human IgG Fc at 5 ug/mL at 4° C. for 0.5 hours before analysis.

[10] = target: recombinant human CD3e (Acro, cat #CDE-H5223) (human, UniProt P07766 23-126); assay: BLI (Gator Bio), bispecific captured on anti-human Fc probe, human CD3e in solution, 1:1 global fit
recombinant human CD3e (Acro, cat #CDE-H5223), sequence (P07766 23-126 limits assumed): as the sequence (P07766 23-126 limits assumed, chain 1 of 2) above
Protocol: as §2

Kd [1] [pM] | Kd [2] [pM] | EC50 (read off the curve) [3] [pM] | Monocyte (max %), Donor 1 [4] [%] | Monocyte (max %), Donor 2 [4] [%] | Monocyte (max %), Donor 3 [4] [%] | Kd [6] [pM] | Kd [7] [pM] | Kd [8] [pM] | EC50 (CD3 on Jurkat cells) [pM] | EC50 [9] [pM] | Kd [10] [pM] | Binder | Monocyte killing EC50, Donor 2 [4] [pM] | T-cell cytotoxicity, THP-1 (max %) [4] [%] | T-cell cytotoxicity, THP-1 EC50 [4] [pM] | Autologous monocyte killing EC50 [5] [pM] | T-cell cytotoxicity, MV4-11 EC50 [5] [pM] | T-cell cytotoxicity, THP-1 EC50 [5] [pM] | Monocyte killing EC50, Donor 3 [4] [pM]
 |  |  |  |  |  | 70 | 840 | 9530 | ~854000 | 1300 | 100 | 4-3ab Q1E S91A (bispecific antibody, human IgG1, kappa, L234A L235A, Second-generation 1+1 bispecific, expressed in CHO-K1; also called Bispecific 2; 4-3ab (second generation)) heavy 1: not shown heavy 2: EVQLVESGGGLVQPGGSLRLSCAASGFSLSSSYWISWVRQAPGKGLEWIGSIDSGSVGITYYATWVKGRFTISRDNSKNTLYLQMNSLRAEDTAVYYCARHGDNWALDLWGQGTLVTVSSASTKGPSVFPLAPSSKSTSGGTAALGCLVKDYFPEPVTVSWNSGALTSGVHTFPAVLQSSGLYSLSSVVTVPSSSLGTQTYICNVNHKPSNTKVDKRVEPKSCDKTHTCPPCPAPEAAGGPSVFLFPPKPKDTLMISRTPEVTCVVVDVSHEDPEVKFNWYVDGVEVHNAKTKPREEQYNSTYRVVSVLTVLHQDWLNGKEYKCKVSNKALPAPIEKTISKAKGQPREPQVCTLPPSREEMTKNQVSLSCAVKGFYPSDIAVEWESNGQPENNYKTTPPVLDSDGSFFLVSKLTVDKSRWQQGNVFSCSVMHEALHNHYTQKSLSLSPG light 1: DIVMTQSPDSLAVSLGERATINCKSSQSLLNSRTRKNYLAWYQQKPGQPPKLLIYWASTRQSGVPDRFSGSGSGTDFTLTISSLQAEDVAVYYCTQSHTLRTFGGGTKVEIKPDIQNPDPAVYQLRDSKSSDKSVCLFTDFDSQTQVSQSKDSDVYITDKCVLDMRSMDFKSNSAVAWSQKSDFACANAFQNSIIPEDTFFPAPESS light 2: DIQMTQSPSTLSASVGDRVTITCRASQSISSWLAWYQQKPGKAPKLLIYKASTLASGVPSRFSGSGSGTEFTLTISSLQPDDFATYYCQHGYIRGDLDNVFGGGTKVEIKRTVAAPSVFIFPPSDEQLKSGTASVVCLLNNFYPREAKVQWKVDNALQSGNSQESVTEQDSKDSTYSLSSTLTLSKADYEKHKVYACEVTHQGLSSPVTKSFNRGEC |  |  |  | 26 | 2.5 | 4.3 | 
33400 | 270 | ~400 | 43 | 34 | 32.5 |  |  |  |  |  |  | 4ab-3 (bispecific antibody, human IgG1, kappa, L234A L235A, also called first-generation LILRB4/CD3 bispecific antibody No. 2) heavy 1: not shown heavy 2: EVQLVESGGGLVQPGGSLRLSCAASGFSLSSSYWISWVRQAPGKGLEWIGSIDSGSVGITYYATWVKGRFTISRDNSKNTLYLQMNSLRAEDTAVYYCARHGDNWALDLWGQGTLVTVLEDLKNVFPPEVAVFEPSEAEISHTQKATLVCLATGFYPDHVELSWWVNGKEVHSGVCTDPQPLKEQPALQDSRYALSSRLRVSATFWQNPRNHFRCQVQFYGLSENDEWTQDRAKPVTQIVSAEAWGRASDKTHTCPPCPAPEAAGGPSVFLFPPKPKDTLMISRTPEVTCVVVDVSHEDPEVKFNWYVDGVEVHNAKTKPREEQYNSTYRVVSVLTVLHQDWLNGKEYKCKVSNKALPAPIEKTISKAKGQPREPQVCTLPPSREEMTKNQVSLSCAVKGFYPSDIAVEWESNGQPENNYKTTPPVLDSDGSFFLVSKLTVDKSRWQQGNVFSCSVMHEALHNHYTQKSLSLSPG light 1: not shown light 2: DIQMTQSPSTLSASVGDRVTITCRASQSISSWLAWYQQKPGKAPKLLIYKASTLASGVPSRFSGSGSGTEFTLTISSLQPDDFATYYCQHGYIRGDLDNVFGGGTKVEIKPDIQNPDPAVYQLRDSKSSDKSVCLFTDFDSQTQVSQSKDSDVYITDKCVLDMRSMDFKSNSAVAWSQKSDFACANAFQNSIIPEDTFFPSPESS | 29 | 98.6 | 0.084 |  |  |  | 9.25

The next lines start with the binder.

Binder | Kd [1] [pM] | Kd [2] [pM] | EC50 (read off the curve) [3] [pM] | Monocyte (max %), Donor 1 [4] [%] | Monocyte (max %), Donor 2 [4] [%] | Monocyte (max %), Donor 3 [4] [%] | Kd [6] [pM] | Kd [7] [pM] | Kd [8] [pM] | EC50 (CD3 on Jurkat cells) [pM] | EC50 [9] [pM] | Kd [10] [pM] | Monocyte killing EC50, Donor 2 [4] [pM] | T-cell cytotoxicity, THP-1 (max %) [4] [%] | T-cell cytotoxicity, THP-1 EC50 [4] [pM] | Autologous monocyte killing EC50 [5] [pM] | T-cell cytotoxicity, MV4-11 EC50 [5] [pM] | T-cell cytotoxicity, THP-1 EC50 [5] [pM] | Monocyte killing EC50, Donor 3 [4] [pM]
4-3ab (bispecific antibody, human IgG1, kappa, L234A L235A, LILRB4 arm from H7K3m5, CD3 arm from WO2019057099; human IgG1 constant domains with knob-in-hole and effector-reducing mutations; also called first-generation LILRB4/CD3 bispecific antibody No. 1) heavy 1: not shown heavy 2: EVQLVESGGGLVQPGGSLRLSCAASGFSLSSSYWISWVRQAPGKGLEWIGSIDSGSVGITYYATWVKGRFTISRDNSKNTLYLQMNSLRAEDTAVYYCARHGDNWALDLWGQGTLVTVSSASTKGPSVFPLAPSSKSTSGGTAALGCLVKDYFPEPVTVSWNSGALTSGVHTFPAVLQSSGLYSLSSVVTVPSSSLGTQTYICNVNHKPSNTKVDKRVEPKSCDKTHTCPPCPAPEAAGGPSVFLFPPKPKDTLMISRTPEVTCVVVDVSHEDPEVKFNWYVDGVEVHNAKTKPREEQYNSTYRVVSVLTVLHQDWLNGKEYKCKVSNKALPAPIEKTISKAKGQPREPQVCTLPPSREEMTKNQVSLSCAVKGFYPSDIAVEWESNGQPENNYKTTPPVLDSDGSFFLVSKLTVDKSRWQQGNVFSCSVMHEALHNHYTQKSLSLSPG light 1: DIVMTQSPDSLAVSLGERATINCKSSQSLLNSRTRKNYLAWYQQKPGQPPKLLIYWASTRQSGVPDRFSGSGSGTDFTLTISSLQAEDVAVYYCTQSHTLRTFGGGTKVEIKPDIQNPDPAVYQLRDSKSSDKSVCLFTDFDSQTQVSQSKDSDVYITDKCVLDMRSMDFKSNSAVAWSQKSDFACANAFQNSIIPEDTFFPSPESS light 2: DIQMTQSPSTLSASVGDRVTITCRASQSISSWLAWYQQKPGKAPKLLIYKASTLASGVPSRFSGSGSGTEFTLTISSLQPDDFATYYCQHGYIRGDLDNVFGGGTKVEIKRTVAAPSVFIFPPSDEQLKSGTASVVCLLNNFYPREAKVQWKVDNALQSGNSQESVTEQDSKDSTYSLSSTLTLSKADYEKHKVYACEVTHQGLSSPVTKSFNRGEC | 49600 | 190 | ~800 | 43 | 41 | 13 |  |  |  |  |  |  | 9.4 | 98 | 0.36 |  |  |  | 
4ab3-4ab S91A (bispecific antibody, human IgG1, kappa, L234A L235A, Second-generation 2+1 bispecific, expressed in CHO-K1; also called Bispecific 1; 4ab3-4ab (second generation)) heavy 1: not shown heavy 2: EVQLVESGGGLVQPGGSLRLSCAASGFSLSSSYWISWVRQAPGKGLEWIGSIDSGSVGITYYATWVKGRFTISRDNSKNTLYLQMNSLRAEDTAVYYCARHGDNWALDLWGQGTLVTVLEDLKNVFPPEVAVFEPSEAEISHTQKATLVCLATGFYPDHVELSWWVNGKEVHSGVCTDPQPLKEQPALQDSRYALSSRLRVSATFWQNPRNHFRCQVQFYGLSENDEWTQDRAKPVTQIVSAEAWGRASDKTHTCPPCPAPEAAGGPSVFLFPPKPKDTLMISRTPEVTCVVVDVSHEDPEVKFNWYVDGVEVHNAKTKPREEQYNSTYRVVSVLTVLHQDWLNGKEYKCKVSNKALPAPIEKTISKAKGQPREPQVCTLPPSREEMTKNQVSLSCAVKGFYPSDIAVEWESNGQPENNYKTTPPVLDSDGSFFLVSKLTVDKSRWQQGNVFSCSVMHEALHNHYTQKSLSLSPG light 1: not shown light 2: DIQMTQSPSTLSASVGDRVTITCRASQSISSWLAWYQQKPGKAPKLLIYKASTLASGVPSRFSGSGSGTEFTLTISSLQPDDFATYYCQHGYIRGDLDNVFGGGTKVEIKPDIQNPDPAVYQLRDSKSSDKSVCLFTDFDSQTQVSQSKDSDVYITDKCVLDMRSMDFKSNSAVAWSQKSDFACANAFQNSIIPEDTFFPAPESS |  |  |  |  |  |  | 260 | 890 | 8820 | ~257000 | 700 | 70 |  |  |  | 5.9 | 0.034 | 0.5 | 
